From US20200179430A1, “USE OF P2Y1 RECEPTOR AND ANTAGONIST THEREOF IN PREVENTION AND TREATMENT OF DEPRESSION AND/OR ANXIETY DISORDER” (SOUTHERN MEDICAL UNIVERSITY, priority 2017, published 2020)
“Also recorded” adds a separate entry of the source.

Legend:
P2Y1 receptor [1] = target: T1, P2Y1 receptor (Mus musculus, UniProt P49650); test: Forced swimming test (FST) in C57BL/6J mice; format: in vivo; conditions: for anti-depression like behavior (immobility time of swimming within the last 4 minutes): MRS2500 2.5 mg/kg intraperitoneally, FST 30 minutes later, 6 minutes; for immobility time of swimming: lateral ventricle administration, MRS2500 0.1 μM, MRS2179 0.2 μM, 1 μL, vs artificial cerebrospinal fluid control, FIG. 2; for immobility time during the forced swimming test: 0.5 μL shRNA adeno-associated virus at ventral tegmental area, 14 days after injection, vs control virus
T1 construct: from tissue; host or cells: living C57BL/6J mice; brain (lateral ventricle administration, ventral tegmental area) or systemic (intraperitoneal)
Protocol: Forced swimming test which was proposed by Porsolt in 1977 was applied to the rats at the earliest, and subsequently extended to the mice. The forced swimming test is used to screening for antidepressants which are found to decrease immobility time of the forced swimming mice, and such model is one of the most common-used models for screening for antidepressants at present. The test steps are as follows: experimental mice adapted in an ethology laboratory for at least 60 minutes in advance, and the following test was carried out: an individual mouse was put in a cylinder glass jar (height: 45 cm; diameter: 19 cm) with a water depth of 23 cm at water temperature of 22° C.-25° C., and was subjected to the forced swimming for 6 minutes. Accumulative immobility time within the last 4 minutes was recorded (mainly behaves as stopping struggling, floating upright, or having only small limb movements to keep the head emerge from the water) as an index of tested depression-like behavior. Effect of the antidepressant can shorten the immobility time of the experimental mice.
Experimental animals: C57BL/6J mice, grade SPF, male, body weight of 20 to 24 g. The animals were provided by the Laboratory Animal Center of Southern Medical University (Guangzhou, China). The mice were put in the SPF grade animal feeding room for feeding in separate cages, with 3 to 4 mice in each cage. The plastic cage has a size of 300 mm×170 mm×120 mm. Room temperature: 24±1° C., light-dark cycle: 12 hours/12 hours, illumination time: 7:00 a.m. to 7:00 p.m., relative humidity: 70% to 85%. The indoor environment was kept quiet and the mice could eat and drink freely. The tests were carried out at 1:00 to 5:00 in the afternoon. Before the test, the mice entered the experimental environment in advance for adaptation and were touched by the experimental personnel for adaptation.
In the forced swimming test of the C57BL/6J mice, the animals were divided into 5 groups randomly with 10 mice in each group. The animals in each group were surgically implanted with a medical perfusion tube at the lateral ventricle and fed for seven days for recovery. Then, four groups of animals were subjected to the following treatment respectively: by using a microdose drug delivery system, administering the corresponding reagent: a control solution (artificial cerebrospinal fluid, 1 μL, 1 μL/min), MRS2500 (0.1 μM, 1 μL, 1 μL/min), MRS2179 (0.2 μM, 1 μL, 1 μL/min). After the injection for each group was completed, the forced swimming test was carried out 10 minutes later.
2.5 mg/kg MRS2500 was intraperitoneally administered to the mice, and 30 minutes later, the mice were subjected to the forced swimming test for 6 minutes. Immobility time of swimming within the last 4 minutes was determined to evaluate the effect of the antidepressant.
Test method: the animal in each group was micro-injected with 0.5 μL of interfering RNA adeno-associated virus (shRNA) at the ventral tegmental area (angle: 7°, AP: −3.2 mm, ML: 1.0 mm, DV: −4.6 mm) (0.1 μL/min, remaining the needle for 5 minutes after injection), fed for 14 days and subjected to a forced swimming test after the expression recovery of virus. Titer of the P2Y1 specific-interfering shRNA is 1×10^13 v.g/ml, 9.55E+08 copy/μL. Adeno-associated virus type 9 was used to package the virus, with the promoter being U6 and the serotype being AAV9 (packaged by Biowit Company, Shenzhen, China). Sequence information: the forward sequence is shown as SEQ ID NO:1; and the reverse sequence is shown as SEQ ID NO:2.

P2Y1 receptor [2] = target: T1, P2Y1 receptor; test: Chronic social defeat stress model, social interaction test; format: in vivo, mice; conditions: for duration at the interaction area, social interaction test: chronic social defeat stress depressed mice, 14 days after injection of shRNA virus, FIG. 9
Protocol: The chronic social defeat stress model was carried out referring to the Golden method.
The C57BL/6J mice were randomly divided into a control group and a stress group. The C57BL/6J mouse in the stress group was daily put in a cage with a screened CD-1 mouse therein, for 10-minute body contact. As an invader, the C57BL/6J mouse behaved as escape, fear, obedience and the like after being attacked. After the contact, within the 24 hours after they were separated by a transparent and perforate partition, the C57BL/6J mouse could smell, see and hear the CD-1 mouse at the opposite side for mental stress. The C57BL/6J mice took turns daily to guarantee to be subjected to even stress. The test was continued for ten days. The CD-1 mouse in the control group was replaced by another C57BL/6J mouse, and took turns daily, but body contact was avoided. After modeling, the mice were fed in separate cages and were subjected to tube-implant surgery at the lateral ventricle. The control group and the test group were administered the corresponding reagent respectively: a control solution (artificial cerebrospinal fluid, 1 μL, 1 μL/min), MRS2500 (0.1 μM, 1 μL, 1 μL/min). After administration, depression level of the mice was tested by a social interaction test. The social interaction test was divided into two stages, 2.5 minutes for each stage. First stage (no target): the CD-1 mouse was not put in a transparent and perforate organic glass box; the C57BL/6J mice were put at the distal side, and dwell durations thereof at the interaction area and at the corner within 2.5 minutes were recorded. Second stage (target): the CD-1 mouse was put in the transparent and perforate organic glass box; the C57BL/6J mice were put at the distal side, and dwell durations thereof at the interaction area and at the corner within 2.5 minutes were recorded.
Experimental animals: C57BL/6J mice, grade SPF, male, body weight of 20 to 24 g. The animals were provided by the Laboratory Animal Center of Southern Medical University (Guangzhou, China). […]

P2Y1 receptor [3] = test: Expression of P2Y1 receptor after intracerebral injection of interfering RNA adeno-associated virus; format: in vivo; conditions: mice injected at ventral tegmental area; vs control group mice
Protocol: In order to further verify whether the P2Y1 receptor can be used as a target of anti-depression and/or anti-anxiety, and to avoid the compensatory effect that may exist in the conventional knockout mice, P2Y1 receptor specifically-interfering adeno-associated virus was prepared in the present invention to be observed whether the virus affects the depression-like behavior. The mice were intracerebrally injected with a trace amount of the P2Y1 receptor-interfering RNA adeno-associated virus at the ventral tegmental area, and then a forced swimming test was carried out. […] The inventors further used a depression model, chronic social defeat stress model to verify the effect of the P2Y1 receptor specifically-interfering adeno-associated virus. After modeling of the depression model was completed, the mice took a day off, and then were administered the P2Y1 receptor specifically-interfering adeno-associated virus, and two weeks later the mice were subjected to a behavior test. […] In the sucrose preference test, a decreased sucrose preference of the social failure depressed mice was reversed (as shown in FIG. 11). […]

P2Y1 receptor [4] = target: T1, P2Y1 receptor; test: Sucrose preference test of mice modeled by chronic social defeat stress model; format: in vivo; conditions: chronic social defeat stress depressed mice; 14 days after injection of shRNA virus; FIG. 11
P2Y1 receptor [5] = target: T1, P2Y1 receptor; test: Forced swimming test of mice modeled by chronic social defeat stress model; format: in vivo; conditions: chronic social defeat stress depressed mice, 14 days after injection of shRNA virus, FIG. 10
Protocol: Forced swimming test which was proposed by Porsolt in 1977 was applied to the rats at the earliest, and subsequently extended to the mice. The forced swimming test is used to screening for antidepressants which are found to decrease immobility time of the forced swimming mice, and such model is one of the most common-used models for screening for antidepressants at present. […] Accumulative immobility time within the last 4 minutes was recorded (mainly behaves as stopping struggling, floating upright, or having only small limb movements to keep the head emerge from the water) as an index of tested depression-like behavior. […]
The C57BL/6J mice were randomly divided into a control group and a stress group. […] First stage (no target): the CD-1 mouse was not put in a transparent and perforate organic glass box; the C57BL/6J mice were put at the distal side, and dwell durations thereof at the interaction area and at the corner within 2.5 minutes were recorded. Second stage (target): the CD-1 mouse was put in the transparent and perforate organic glass box; the C57BL/6J mice were put at the distal side, and dwell durations thereof at the interaction area and at the corner within 2.5 minutes were recorded. […]

[6] = listed as P2Y1 receptor specifically-interfering adeno-associated virus

T1 sequence (P49650 whole entry): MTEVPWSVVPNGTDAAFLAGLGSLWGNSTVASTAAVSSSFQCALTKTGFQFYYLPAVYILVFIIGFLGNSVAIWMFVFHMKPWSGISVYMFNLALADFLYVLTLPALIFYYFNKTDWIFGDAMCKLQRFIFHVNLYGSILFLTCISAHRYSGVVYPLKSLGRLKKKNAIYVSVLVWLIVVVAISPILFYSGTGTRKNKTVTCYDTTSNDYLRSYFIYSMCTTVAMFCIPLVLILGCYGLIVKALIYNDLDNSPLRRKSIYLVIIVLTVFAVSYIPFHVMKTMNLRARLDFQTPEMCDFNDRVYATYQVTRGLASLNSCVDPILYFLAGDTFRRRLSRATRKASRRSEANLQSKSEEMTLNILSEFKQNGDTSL

CNCCC(Oc1ccc(C(F)(F)F)cc1)c1ccccc1 (stereo not shown) [Fluoxetine]
anti-depression like behavior (immobility time of swimming within the last 4 minutes) (P2Y1 receptor [1]; FIG. 1): anti-depression like behavior

CNc1ncnc2c1ncn2[C@H]1C[C@H](OP(=O)(O)O)[C@@H](COP(=O)(O)O)O1 [MRS2179]
immobility time of swimming (P2Y1 receptor [1]): significantly reduce the immobility time; also recorded: significantly shorten the immobility time of swimming

CNc1nc(I)nc2c1ncn2[C@H]1C[C@H](OP(=O)(O)O)[C@]2(COP(=O)(O)O)C[C@H]12 [MRS2500]
dwell duration at the interaction area (depressive situation) (P2Y1 receptor [2]; chronic social defeat stress C57BL/6J mice, single dose MRS2500 0.1 μM, 1 μL, lateral ventricle, FIG. 3): significantly improved; also recorded: can improve the dwell duration at the interaction area
anti-depression like behavior (immobility time of swimming within the last 4 minutes) (P2Y1 receptor [1]; FIG. 1, 2.5 mg/kg): shows the same anti-depression like behavior as administration of the conventional antidepressant Fluoxetine
immobility time of swimming (P2Y1 receptor [1]): significantly reduce the immobility time; also recorded: significantly shorten the immobility time of swimming

B1: P2Y1-shRNA: P2Y1 specific-interfering shRNA packaged in adeno-associated virus type 9, U6 promoter; sequences SEQ ID NO:1 and SEQ ID NO:2 (nucleic acid)
chain 1: GATCCCCAGCCCTCATCTTCTACTACTTCATTCAAGAGATGAAGTAGTAGAAGATGAGGGCTGGTTTTTTAGATCTA
chain 2: AGCTTAGATCTAAAAAACCAGCCCTCATCTTCTACTACTTCATCTCTTGAATGAAGTAGTAGAAGATGAGGGCTGGG
expression of P2Y1 receptor (P2Y1 receptor [3]): significantly decreased the expression of P2Y1 receptor
duration at the interaction area, social interaction test (P2Y1 receptor [2]): enhance the duration at the interaction area
duration at the interaction area, social interaction test (P2Y1 receptor [2]; [6]): situation of the social defeat depressed mice was reversed
immobility time during the forced swimming test (P2Y1 receptor [1]; FIG. 8): significantly reduced immobility time
immobility time during the forced swimming test (P2Y1 receptor [1]; FIG. 8, listed as P2Y1 receptor-interfering RNA): obviously decreased immobility time
sucrose preference (P2Y1 receptor [4]): enhance the decreased sucrose preference
immobility time, forced swimming test (P2Y1 receptor [5]): reduce the increased immobility time
immobility time, forced swimming test (P2Y1 receptor [5]; [6]): returned to the level of the control group
